PMC9352680, “A comprehensive thermodynamic model for RNA binding by the Saccharomyces cerevisiae Pumilio protein PUF4”

T1: PUF4 RNA-binding domain (Saccharomyces cerevisiae, UniProt P25339 537-888)
T1 sequence: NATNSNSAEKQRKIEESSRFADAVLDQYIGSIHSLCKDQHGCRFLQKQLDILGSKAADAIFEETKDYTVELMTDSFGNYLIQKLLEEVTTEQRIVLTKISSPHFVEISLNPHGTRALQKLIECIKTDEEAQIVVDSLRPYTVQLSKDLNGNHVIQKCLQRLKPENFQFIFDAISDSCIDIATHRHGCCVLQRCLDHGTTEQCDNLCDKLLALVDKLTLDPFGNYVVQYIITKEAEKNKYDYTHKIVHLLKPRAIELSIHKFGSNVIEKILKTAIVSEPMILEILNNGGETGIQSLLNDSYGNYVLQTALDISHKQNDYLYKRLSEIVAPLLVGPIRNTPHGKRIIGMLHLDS


Biological target: T1, PUF4 RNA-binding domain
Test: Mg; RNA-MaP; 20 mM Na-HEPES pH 7.4, 30 mM KOAc, 0.75 mM MgCl2, 0.1% Tween-20, 5% glycerol, 0.1 mg/mL BSA, 2 mM DTT; 25 C; 0.0125-409.6 nM protein
Details: tags: N-His6-TEV cleaved; C-SNAP kept, Cy3B-labelled; label: tethered on chip by stalled RNA polymerase

Binder	Kd
UCUCUUUGCAUUAUAAUCUCUU (ssRNA) [Ib_S1_P5E.1_K5.1_C5.1_H5.1_[T3C]_A5.1_F5.1_[T9A]_T5.1]	1400 nM
UCUCUUUAUAUUAUAAUCUCUU (ssRNA) [Ib_S1_P5E.1_K5.1_C5.1_H5.1_[G2A]_A5.1_F5.1_[T9A]_T5.1]	124 nM
UCUCUUUAUAUUAUCAUCUCUU (ssRNA) [Ib_S1_P5E.1_K5.1_C5.1_H5.1_[G2A]_A5.1_F5.1_[T9C]_T5.1]	641 nM
Id_ii_S2_P3E.3_K3.2_C3.2_[T-1G]_H3.2_A3.1_F3.1_T3.2_[T9G]_[A10C] (ssRNA) RNA: UUUGAUUAAUAUGAUAUCGUUCUUUCUCGUAUAUAUAGCUUCUUUCUCGAUAUCAUAUUAAUCUUU	108 nM
Id_ii_S2_P3E.3_K3.2_C3.2_[T-1A]_H3.2_A3.1_F3.1_T3.2_[T9C] (ssRNA) RNA: UUUGAUUAAUAUGAUAUCGUUCUUUCUCAUAUAUAUACAUUCUUUCUCGAUAUCAUAUUAAUCUUU	198 nM
Id_ii_S2_P3E.3_K3.2_C3.2_[T-1G]_H3.2_A3.1_F3.1_T3.2 (ssRNA) RNA: UUUGAUUAAUAUGAUAUCGUUCUUUCUCGUAUAUAUAUAUUCUUUCUCGAUAUCAUAUUAAUCUUU	160 nM
Id_ii_S2_P3E.4_K3.3_C3.2_[C-2G]_H3.3_A3.1_F3.1_T3.2_[T9C]_[A10C] (ssRNA) RNA: UUUGAUUAAUAUGAUAUCGUUCUUUCUGUACACUAUACCUUCUUUCUCGAUAUCAUAUUAAUCUUU	0.875 nM
Id_ii_S2_P3E.3_K3.2_C3.2_[T-1A]_H3.2_A3.1_F3.1_T3.2_[T9A]_[A10C] (ssRNA) RNA: UUUGAUUAAUAUGAUAUCGUUCUUUCUCAUAUAUAUAACUUCUUUCUCGAUAUCAUAUUAAUCUUU	218 nM
Id_ii_S2_P3E.3_K3.2_C3.2_H3.2_A3.1_F3.1_T3.2_[T9A] (ssRNA) RNA: UUUGAUUAAUAUGAUAUCGUUCUUUCUCUUAUAUAUAAAUUCUUUCUCGAUAUCAUAUUAAUCUUU	401 nM
Id_ii_S2_P3E.3_K3.2_C3.2_[T-1C]_H3.2_A3.1_F3.1_T3.2_[T9C] (ssRNA) RNA: UUUGAUUAAUAUGAUAUCGUUCUUUCUCCUAUAUAUACAUUCUUUCUCGAUAUCAUAUUAAUCUUU	84.9 nM
Id_ii_S2_P3E.4_K3.3_C3.2_[C-2G]_H3.3_A3.1_F3.1_T3.2 (ssRNA) RNA: UUUGAUUAAUAUGAUAUCGUUCUUUCUGUACACUAUAUAUUCUUUCUCGAUAUCAUAUUAAUCUUU	0.551 nM
Id_ii_S2_P3E.4_K3.3_C3.2_[C-2G]_H3.3_A3.1_F3.1_T3.2_[T9A]_[A10T] (ssRNA) RNA: UUUGAUUAAUAUGAUAUCGUUCUUUCUGUACACUAUAAUUUCUUUCUCGAUAUCAUAUUAAUCUUU	0.478 nM
Id_ii_S2_P3E.3_K3.2_C3.2_[T-1C]_H3.2_A3.1_F3.1_T3.2_[T9A] (ssRNA) RNA: UUUGAUUAAUAUGAUAUCGUUCUUUCUCCUAUAUAUAAAUUCUUUCUCGAUAUCAUAUUAAUCUUU	251 nM
Id_ii_S2_P3E.3_K3.2_C3.2_[T-1C]_H3.2_A3.1_F3.1_T3.2_[T9A]_[A10T] (ssRNA) RNA: UUUGAUUAAUAUGAUAUCGUUCUUUCUCCUAUAUAUAAUUUCUUUCUCGAUAUCAUAUUAAUCUUU	93.1 nM
Id_ii_S2_P3E.4_K3.3_C3.2_[C-2G]_H3.3_A3.1_F3.1_T3.2_[A10C] (ssRNA) RNA: UUUGAUUAAUAUGAUAUCGUUCUUUCUGUACACUAUAUCUUCUUUCUCGAUAUCAUAUUAAUCUUU	0.486 nM
Id_ii_S2_P3E.3_K3.2_C3.2_H3.2_A3.1_F3.1_T3.2_[T9C]_[A10G] (ssRNA) RNA: UUUGAUUAAUAUGAUAUCGUUCUUUCUCUUAUAUAUACGUUCUUUCUCGAUAUCAUAUUAAUCUUU	292 nM
Id_ii_S2_P3E.4_K3.3_C3.2_[C-2G]_[T-1C]_H3.3_A3.1_F3.1_T3.2_[T9A] (ssRNA) RNA: UUUGAUUAAUAUGAUAUCGUUCUUUCUGCACACUAUAAAUUCUUUCUCGAUAUCAUAUUAAUCUUU	38.5 nM
Id_ii_S2_P3E.3_K3.2_C3.2_H3.2_A3.1_F3.1_T3.2_[A10T] (ssRNA) RNA: UUUGAUUAAUAUGAUAUCGUUCUUUCUCUUAUAUAUAUUUUCUUUCUCGAUAUCAUAUUAAUCUUU	72.5 nM
Id_ii_S2_P3E.4_K3.3_C3.2_[C-2G]_[T-1C]_H3.3_A3.1_F3.1_T3.2_[T9A]_[A10C] (ssRNA) RNA: UUUGAUUAAUAUGAUAUCGUUCUUUCUGCACACUAUAACUUCUUUCUCGAUAUCAUAUUAAUCUUU	31.9 nM
Id_ii_S2_P3E.3_K3.2_C3.2_[T-1G]_H3.2_A3.1_F3.1_T3.2_[T9A] (ssRNA) RNA: UUUGAUUAAUAUGAUAUCGUUCUUUCUCGUAUAUAUAAAUUCUUUCUCGAUAUCAUAUUAAUCUUU	190 nM
Id_ii_S2_P3E.3_K3.2_C3.2_H3.2_A3.1_F3.1_T3.2_[A10G] (ssRNA) RNA: UUUGAUUAAUAUGAUAUCGUUCUUUCUCUUAUAUAUAUGUUCUUUCUCGAUAUCAUAUUAAUCUUU	83.8 nM
Id_ii_S2_P3E.3_K3.2_C3.2_H3.2_A3.1_F3.1_T3.2_[A10C] (ssRNA) RNA: UUUGAUUAAUAUGAUAUCGUUCUUUCUCUUAUAUAUAUCUUCUUUCUCGAUAUCAUAUUAAUCUUU	83.2 nM
Id_ii_S2_P3E.3_K3.2_C3.2_[T-1A]_H3.2_A3.1_F3.1_T3.2_[T9G]_[A10T] (ssRNA) RNA: UUUGAUUAAUAUGAUAUCGUUCUUUCUCAUAUAUAUAGUUUCUUUCUCGAUAUCAUAUUAAUCUUU	447 nM

Binder	Kd
Id_ii_S2_P3E.4_K3.3_C3.2_[C-2G]_H3.3_A3.1_F3.1_T3.2_[T9C]_[A10T] (ssRNA) RNA: UUUGAUUAAUAUGAUAUCGUUCUUUCUGUACACUAUACUUUCUUUCUCGAUAUCAUAUUAAUCUUU	1.98 nM
Id_ii_S2_P3E.3_K3.2_C3.2_[T-1C]_H3.2_A3.1_F3.1_T3.2_[T9C]_[A10T] (ssRNA) RNA: UUUGAUUAAUAUGAUAUCGUUCUUUCUCCUAUAUAUACUUUCUUUCUCGAUAUCAUAUUAAUCUUU	120 nM
Id_ii_S2_P3E.4_K3.3_C3.2_[C-2G]_H3.3_A3.1_F3.1_T3.2_[T9A]_[A10C] (ssRNA) RNA: UUUGAUUAAUAUGAUAUCGUUCUUUCUGUACACUAUAACUUCUUUCUCGAUAUCAUAUUAAUCUUU	0.742 nM
Id_ii_S2_P3E.3_K3.2_C3.2_[T-1A]_H3.2_A3.1_F3.1_T3.2_[T9C]_[A10C] (ssRNA) RNA: UUUGAUUAAUAUGAUAUCGUUCUUUCUCAUAUAUAUACCUUCUUUCUCGAUAUCAUAUUAAUCUUU	177 nM
Id_ii_S2_P3E.3_K3.2_C3.2_[T-1C]_H3.2_A3.1_F3.1_T3.2 (ssRNA) RNA: UUUGAUUAAUAUGAUAUCGUUCUUUCUCCUAUAUAUAUAUUCUUUCUCGAUAUCAUAUUAAUCUUU	42.2 nM
Id_ii_S2_P3E.3_K3.2_C3.2_[T-1G]_H3.2_A3.1_F3.1_T3.2_[T9C]_[A10C] (ssRNA) RNA: UUUGAUUAAUAUGAUAUCGUUCUUUCUCGUAUAUAUACCUUCUUUCUCGAUAUCAUAUUAAUCUUU	863 nM
Id_ii_S2_P3E.3_K3.2_C3.2_[T-1A]_H3.2_A3.1_F3.1_T3.2_[A10C] (ssRNA) RNA: UUUGAUUAAUAUGAUAUCGUUCUUUCUCAUAUAUAUAUCUUCUUUCUCGAUAUCAUAUUAAUCUUU	227 nM
Id_ii_S2_P3E.3_K3.2_C3.2_H3.2_A3.1_F3.1_T3.2_[T9C] (ssRNA) RNA: UUUGAUUAAUAUGAUAUCGUUCUUUCUCUUAUAUAUACAUUCUUUCUCGAUAUCAUAUUAAUCUUU	108 nM
Id_ii_S2_P3E.3_K3.2_C3.2_[T-1C]_H3.2_A3.1_F3.1_T3.2_[T9G]_[A10T] (ssRNA) RNA: UUUGAUUAAUAUGAUAUCGUUCUUUCUCCUAUAUAUAGUUUCUUUCUCGAUAUCAUAUUAAUCUUU	718 nM
Id_ii_S2_P3E.4_K3.3_C3.2_[C-2G]_[T-1C]_H3.3_A3.1_F3.1_T3.2_[T9C]_[A10G] (ssRNA) RNA: UUUGAUUAAUAUGAUAUCGUUCUUUCUGCACACUAUACGUUCUUUCUCGAUAUCAUAUUAAUCUUU	817 nM
Id_ii_S2_P3E.4_K3.3_C3.2_[C-2T]_[T-1C]_H3.3_A3.1_F3.1_T3.2_[T9C]_[A10C] (ssRNA) RNA: UUUGAUUAAUAUGAUAUCGUUCUUUCUUCACACUAUACCUUCUUUCUCGAUAUCAUAUUAAUCUUU	1970 nM
Id_ii_S2_P3E.3_K3.2_C3.2_[T-1G]_H3.2_A3.1_F3.1_T3.2_[T9A]_[A10G] (ssRNA) RNA: UUUGAUUAAUAUGAUAUCGUUCUUUCUCGUAUAUAUAAGUUCUUUCUCGAUAUCAUAUUAAUCUUU	573 nM
Id_ii_S2_P3E.3_K3.2_C3.2_H3.2_A3.1_F3.1_T3.2_[T9A]_[A10C] (ssRNA) RNA: UUUGAUUAAUAUGAUAUCGUUCUUUCUCUUAUAUAUAACUUCUUUCUCGAUAUCAUAUUAAUCUUU	112 nM
Id_ii_S2_P3E.3_K3.2_C3.2_[T-1A]_H3.2_A3.1_F3.1_T3.2_[T9A]_[A10G] (ssRNA) RNA: UUUGAUUAAUAUGAUAUCGUUCUUUCUCAUAUAUAUAAGUUCUUUCUCGAUAUCAUAUUAAUCUUU	1090 nM
Id_ii_S2_P3E.4_K3.3_C3.2_[C-2G]_[T-1C]_H3.3_A3.1_F3.1_T3.2_[T9C] (ssRNA) RNA: UUUGAUUAAUAUGAUAUCGUUCUUUCUGCACACUAUACAUUCUUUCUCGAUAUCAUAUUAAUCUUU	78 nM
Id_ii_S2_P3E.3_K3.2_C3.2_H3.2_A3.1_F3.1_T3.2 (ssRNA) RNA: UUUGAUUAAUAUGAUAUCGUUCUUUCUCUUAUAUAUAUAUUCUUUCUCGAUAUCAUAUUAAUCUUU	54.4 nM
Id_ii_S2_P3E.3_K3.2_C3.2_[T-1C]_H3.2_A3.1_F3.1_T3.2_[T9A]_[A10G] (ssRNA) RNA: UUUGAUUAAUAUGAUAUCGUUCUUUCUCCUAUAUAUAAGUUCUUUCUCGAUAUCAUAUUAAUCUUU	739 nM
Id_ii_S2_P3E.3_K3.2_C3.2_[T-1C]_H3.2_A3.1_F3.1_T3.2_[T9C]_[A10C] (ssRNA) RNA: UUUGAUUAAUAUGAUAUCGUUCUUUCUCCUAUAUAUACCUUCUUUCUCGAUAUCAUAUUAAUCUUU	245 nM
Id_ii_S2_P3E.3_K3.2_C3.2_H3.2_A3.1_F3.1_T3.2_[T9A]_[A10T] (ssRNA) RNA: UUUGAUUAAUAUGAUAUCGUUCUUUCUCUUAUAUAUAAUUUCUUUCUCGAUAUCAUAUUAAUCUUU	121 nM
Id_ii_S2_P3E.3_K3.2_C3.2_[T-1C]_H3.2_A3.1_F3.1_T3.2_[T9A]_[A10C] (ssRNA) RNA: UUUGAUUAAUAUGAUAUCGUUCUUUCUCCUAUAUAUAACUUCUUUCUCGAUAUCAUAUUAAUCUUU	122 nM
Id_ii_S2_P3E.3_K3.2_C3.2_H3.2_A3.1_F3.1_T3.2_[T9C]_[A10C] (ssRNA) RNA: UUUGAUUAAUAUGAUAUCGUUCUUUCUCUUAUAUAUACCUUCUUUCUCGAUAUCAUAUUAAUCUUU	115 nM
UCUCUUUGCAUUAUCAUCUCUU (ssRNA) [Ib_S1_P5E.1_K5.1_C5.1_H5.1_[T3C]_A5.1_F5.1_[T9C]_T5.1]	> 2300 nM
